# From patent publication US20200113912A1, “Methods and Compositions for the Treatment of Disease with Immune Stimulatory Conjugates” (Silverback Therapeutics, Inc., priority 2018, published 2020)
# Columns and labels:
# [1] = Repeat-dose intravenous administration in cynomolgus monkey; type: in vivo
# Description: The monkey used in this study was purpose-bred, treatment-naïve, and housed and treated at Charles River Laboratories in Reno, Nev., in accordance with US FDA GLP regulations. The target age and weight of the animal at time of dosing was 2 to 4 years and 2.5 to 3.5 kg, respectively, and the animal used on study was female. HER2-TLR8 was evaluated on a repeat dose schedule as follows: 1 mg/kg was dosed on Day 1, followed by a 7.5 mg/kg dose administered one week later on Day 8 and a third 7.5 mg/kg dose administered three weeks later on Day 29. After each dose, the animal was observed cage-side for clinical signs and symptoms associated with dosing. […] This animal was euthanized due to the rapid onset of clinical signs of pale mucus membranes and face, hunched posture, decreased activity, hypothermia (as assessed by being cool to the touch), and labored, shallow breathing. These clinical signs presented within 2.5 hour following dosing on Day 29.
# [2] = Repeat-dose subcutaneous administration in cynomolgus monkey; type: in vivo; settings: SC
# Description: The monkey used in this study was purpose-bred, treatment-naïve, and housed and treated at Charles River Laboratories in Reno, Nev., in accordance with US FDA GLP regulations. The target age and weight of the animal at time of dosing was 2 to 4 years and 2.5 to 3.5 kg, respectively, and the animal used on study was female. HER2-TLR8 was evaluated on a repeat dose schedule as follows: 2 mg/kg dose was subcutaneously administered on a Q2W dosing schedule over 4 dosing cycles, 6 mg/kg was subcutaneously administered on a Q3W dosing schedule over 4 dosing cycles and 12 mg/kg was subcutaneously administered on a Q3W dosing schedule over 4 dosing cycles. After each dose, the animal was observed cage-side for clinical signs and symptoms associated with dosing.
# [3] = test system: C-reactive protein (CRP); test: Pharmacodynamic response (CRP) after repeat SC dosing in non-human primates; type: in vivo, cynomolgus monkey; settings: repeat-dose SC, 2, 6 and 12 mg/kg
# Excerpt: Blood samples were collected by venous puncture at various timepoints and analyzed for blood chemistries, including C-reactive protein (CRP), using a standard blood analyzer.
# [4] = Single-dose pharmacokinetic profile in cynomolgus monkey (serum ELISA); type: in vivo
# Description: The pharmacokinetic profile of a single dose of HER2-TLR8 administered subcutaneously at 2, 6, or 12 mg/kg or intravenously at 7.5 mg/kg in cynomolgus monkey was studied. Blood was collected by venous puncture at a series of timepoints pre and post-dosing. Serum was prepared and HER2-TLR8 was measured by an ELISA assay in which serum samples were added to an assay plate coated with recombinant HER2 and HER2-TLR8 was detected using a labelled antibody directed against the TLR8 payload.
# [5] = test system: BMDM + SK-BR-3 (HER2pos); test: mTNFα from bone marrow derived macrophages co-cultured with SK-BR-3; type: cell-based, mouse; settings: 24 hours; conjugate 100-0.001 nM, payload 1000-0.001 nM; HER2pos SK-BR-3
# Description: (§1) The ability of an anti-HER2-TLR7 conjugate to specifically activate mouse macrophages when bound to tumor cells by HER2 was assessed in vitro as follows. Bone marrow cells were harvested from BALB/cJ mouse femurs and tibias using a 27-gauge needle attached to a 3 mL syringe filled with growth media (DMEM supplemented with 10% Fetal Bovine Serum, 1 mM Sodium Pyruvate, 1× GlutaMAX-1, 1× Non-Essential Amino Acids, 10 mM HEPES and 0.5% Penicillin/Streptomycin). Bone marrow cells were centrifuged, and RBC were lysed before being counted and resuspended at a concentration 5×10^5/mL in growth media. Ten mL of cell suspension was placed in 10 cm dishes and 20 ng/mL murine macrophage-colony-stimulating factor (mM-CSF) was added. […] Bone marrow derived macrophage cells lines (BMDM) and tumor cell lines SK-BR-3 (HER2pos) or MDA-MB-468 (HER2neg) were removed from plates with Accutase cell detachment solution and counted. […]
# (§2) After culture, supernatants were collected and frozen at −80° C. until cytokine analysis was performed. Murine TNFα (mTNFα) levels in the supernatant were determined by mTNFα ELISA Kit (BioLegend) and read on an Envision Plate Reader (Perkin Elmer, Waltham, Mass.) according to manufacturer's instructions. mTNFα levels were then graphed using GraphPad Prism 7.01 software (GraphPad Software, San Diego, Calif.) and EC50 values were generated using non-linear regression curve fit.
# [6] = test system: BMDM + MDA-MB-468 (HER2neg); test: mTNFα from bone marrow derived macrophages co-cultured with MDA-MB-468; type: cell-based, mouse; settings: 24 hours; conjugate 100-0.001 nM, payload 1000-0.001 nM; HER2neg MDA-MB-468
# Description: as §1, §2
# [7] = 10 μg per mouse, 5 minutes following second dose of HER2-TLR7 5 mg/kg
# Description: Rectal temperatures and clinical scores were assessed as previously shown.
structure (smiles),measurement,setting,value
CCCN(CCC)C(=O)C1=Cc2ccc(C(=O)Nc3cnc4c(c3)CN(C(=O)OCc3ccc(NC(=O)[C@H](CCCNC(N)=O)NC(=O)[C@@H](NC(=O)CCCCCN5C(=O)C=CC5=O)C(C)C)cc3)CC4)cc2N=C(N)C1 [HER2-TLR8],anaphylaxis-like response after the first two doses,"[1]; IV bolus, 1 mg/kg Day 1 and 7.5 mg/kg Day 8",did not produce an anaphylaxis-like response
same,outcome of the third intravenous dose,"[1]; IV bolus, 7.5 mg/kg Day 29",resulted in mortality
same,time to presentation of clinical signs following dosing,"[1]; third IV dose, 7.5 mg/kg Day 29",≤ 2.5 h
same,tolerability,"[2]; 2 mg/kg Q2W, 6 mg/kg Q3W, 12 mg/kg Q3W, 4 dosing cycles",well-tolerated at all dose levels and through all dosing cycles
same,clinical anaphylaxis-like signs or symptoms,"[2]; first or repeat dose at any dose level (2, 6, 12 mg/kg)","No clinical, anaphylaxis-like signs or symptoms were observed"
same,C-reactive protein (CRP) in blood,[3],"consistent, modest elevation of C-reactive protein (CRP) with each dosing cycle"
same,AUC,"[4]; 7.5 mg/kg, IV, 7.5 mpk",3770 µg·h/mL
same,AUC,"[4]; subcutaneous, 2 mg/kg, SubC, 2 mpk",714 µg·h/mL
same,AUC,"[4]; subcutaneous, 6 mg/kg, SubC, 6 mpk",2400 µg·h/mL
same,AUC,"[4]; subcutaneous, 12 mg/kg, SubC, 12 mpk",3650 µg·h/mL
CCOCc1nc2c(N)nc3ccccc3c2n1CC(C)(C)OCCNC(=O)C(C)(C)N [TLR7 payload compound],activation of macrophages (mTNFα in supernatant),[5],capable of potently activating the macrophages in the presence of both cell lines
same,activation of macrophages (mTNFα in supernatant),[6],capable of potently activating the macrophages in the presence of both cell lines
CNC[C@H](O)c1ccc(O)c(O)c1 [epinephrine],effect on toxicity of second IV dose of HER2-TLR7,[7],mitigates the toxicity
